Common to all, as to test: cell-based or functional assay
Experiment [1] deals with human FcγRIIb on Jurkat/NFAT-Luc effector cells (human) (UniProt P31994).
For experiment [2], the target named is mouse FcγRIII on Jurkat/NFAT-Luc effector cells (mouse) (UniProt P08508).
Experiment [3] addresses mouse FcγRIV on Jurkat/NFAT-Luc effector cells (mouse).
The target in experiment [4] is human FcγRIIa, high-affinity H131 variant, on Jurkat/NFAT-Luc effector cells (human) (UniProt P12318).
The target in experiment [5] is human FcγRIIa, low-affinity R131 variant, on Jurkat/NFAT-Luc effector cells (human) (UniProt P12318).
Sequence of human FcγRIIa, low-affinity R131 variant, on Jurkat/NFAT-Luc effector cells (human) (P12318 other isoform, or with tags, fused parts or gaps mutant limits assumed): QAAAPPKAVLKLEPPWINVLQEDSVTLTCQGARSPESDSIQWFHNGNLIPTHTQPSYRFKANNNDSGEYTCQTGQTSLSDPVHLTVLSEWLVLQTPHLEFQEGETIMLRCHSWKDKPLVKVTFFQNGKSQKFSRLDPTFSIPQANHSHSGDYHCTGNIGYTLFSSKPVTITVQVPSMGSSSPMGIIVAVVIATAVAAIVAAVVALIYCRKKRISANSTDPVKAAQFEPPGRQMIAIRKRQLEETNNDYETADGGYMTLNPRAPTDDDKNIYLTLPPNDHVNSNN

Sequence of human FcγRIIb on Jurkat/NFAT-Luc effector cells (human) (P31994 43-310): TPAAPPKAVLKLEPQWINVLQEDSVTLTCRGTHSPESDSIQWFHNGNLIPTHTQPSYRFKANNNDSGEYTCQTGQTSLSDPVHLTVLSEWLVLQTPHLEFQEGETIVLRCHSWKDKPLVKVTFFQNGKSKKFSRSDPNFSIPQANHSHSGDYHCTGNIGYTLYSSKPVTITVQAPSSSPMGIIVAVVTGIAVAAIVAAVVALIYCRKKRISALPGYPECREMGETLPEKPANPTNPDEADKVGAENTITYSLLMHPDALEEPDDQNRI
Sequence of human FcγRIIa, high-affinity H131 variant, on Jurkat/NFAT-Luc effector cells (human) (P12318 34-317, change not shown): as the sequence (P12318 other isoform, or with tags, fused parts or gaps mutant limits assumed) above, with R134H counted along it
Sequence of mouse FcγRIV on Jurkat/NFAT-Luc effector cells (mouse) (A0A0B4J1G0 21-203): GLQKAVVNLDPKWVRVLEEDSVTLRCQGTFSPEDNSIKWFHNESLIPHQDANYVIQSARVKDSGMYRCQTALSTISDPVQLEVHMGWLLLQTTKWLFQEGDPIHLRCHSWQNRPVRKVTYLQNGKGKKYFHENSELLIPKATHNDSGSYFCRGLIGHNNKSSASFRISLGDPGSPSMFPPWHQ
Sequence of mouse FcγRIII on Jurkat/NFAT-Luc effector cells (mouse) (P08508 31-261): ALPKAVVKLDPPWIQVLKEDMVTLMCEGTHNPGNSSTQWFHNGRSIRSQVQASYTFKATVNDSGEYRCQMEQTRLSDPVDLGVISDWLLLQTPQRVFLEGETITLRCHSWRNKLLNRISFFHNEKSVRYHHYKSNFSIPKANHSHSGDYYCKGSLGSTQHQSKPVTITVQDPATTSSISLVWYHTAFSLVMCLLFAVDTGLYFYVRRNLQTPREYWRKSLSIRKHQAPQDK

For Ipilimumab (antibody), the EC50 (µg/mL), FcR reporter bioassay in experiment [1] was found to be 0.17 µg/mL; in experiment [3], 2.21 µg/mL; in experiment [4], 0.05 µg/mL; in experiment [5] it was 0.21 µg/mL. In addition, the Maximum luminescence (RLU), FcR reporter bioassay in experiment [1] came out at 5800 RLU; in experiment [2] it was 17500 RLU; in experiment [3] it was 990 RLU; in experiment [4], 973 RLU; in experiment [5] it was 2640 RLU.

Values taken from patent US20230265192A1.
